US20230086530A1 (SHANGHAI ESCUGEN BIOTECHNOLOGY, published 2023)
Like-named read-outs stand apart in the source and are kept apart here.

B1: DX-36698 VHH single-domain antibody (VHH)
VHH: QVQLVESGGGLVQAGGSLRLSCAASVRTFSIYAMGWFRQAPGKDREFVGAISGRGYTTYYVDSVKGRFTISRDNAKNTVYLQMNSLKPEDTAVYYCAADLYGSRRYADRESYDYWGQGTQVTVSS
notes: purified from E. coli (NiNTA)
B2: control antibody 5F9 (antibody, human IgG4 S228P, kappa)
heavy: not shown
light: DVLMTQTPLSLPVSLGDQASISCRSSQSIVYSNGNTYLGWYLQKPGQSPKLLIYKVSNRFSGVPDRFSGSGSGTDFTLKISRVEAEDLGVYHCFQGSHVPYTFGGGTKVEIKRTVAAPSVFIFPPSDEQLKSGTASVVCLLNNFYPREAKVQWKVDNALQSGNSQESVTEQDSKDSTYSLSSTLTLSKADYEKHKVYACEVTHQGLSSPVTKSFNRGEC
notes: also called 5F9 antibody
B3: DX-36699 VHH single-domain antibody (VHH)
VHH: DVQLQASGGGSVEAGGSLTLSCLASGFYNMRWYRQAPGNERELVARIGIGGSTDYADSVKGRFTISRGNAKNMVHLQMNSLKPEDTAVYYCWGGGYWGQGTQVTVSS
notes: purified from E. coli (NiNTA)

Columns and labels:
[1] = target: T1, Human CD47 recombinant protein (Human CD47 His Tag), ACRO Biosystems Cat. No. CD7-H5227 (human, UniProt Q08722 19-139); experiment: competition ELISA: huCD47-His coated, VHH against 5 nM SIRPα-mIgG1
T1 construct: bought protein; also called huCD47-His; huCD47; not shown: His tag
Protocol: 100 μl of 1 μg/mL huCD47-His antigen (purchased from ACRO Biosystems, Cat. No. CD7-H5227) was add to a 96-well plate, and coated overnight at 4° C. The plate was washed three times with 250 μl of PBST, and added 100 μl of purified VHH to the final concentrations of 500, 50, 5, and 0.5 nM, respectively, and incubated at room temperature for 1 h. […] After washing the plate three times with PBST, goat anti-mouse HRP-conjugate (purchased from Invitrogen, Cat. No. 31430) diluted 1:5000 was added and incubated for 45 mins. After washing the plate three times with 250 μl of PBST, TMB (purchased from Cell Signaling Technology, Cat. No. 7004) as a chromogenic substrate was added and developed color for 10 mins. After quenching the reaction with 0.5M HCl, data was read on a microplate reader.

[2] = target: T2, human CD47 on the cell membrane surface of CD47 positive tumor cells (Raji, NUGC-4, Jurkat) (human, UniProt Q08722 19-323); experiment: FACS on Raji cells, VHH 0.5 µg/mL
T2 construct: whole, on cells; also called huCD47 on the cell membrane surface; cell surface CD47
Protocol: (§1) Antibodies that can bind to CD47 positive cells were screened by flow cytometry (FACS). Human Burkitt's lymphoma cells Raji (purchased from the Cell Bank of the Chinese Academy of Sciences, Cat. No. TCHu 44) were cultured in RPMI-1640 medium (purchased from Gibco, Cat. No. 11875-093) comprising 10% fetal bovine serum FBS (purchased from Gibco, Cat. No. 1009141) at 37° C. with 5% CO₂.
(§2) Raji cells were collected by centrifugation at 800 rpm for 3 mins, rinsed once with PBS+1% FBS and resuspended for counting. In a 96-well plate, 1×10⁵ Raji cells were added to each well, and then the VHH (purified) samples were added in a gradient dilution. The final concentrations of VHH were 5, 0.5, and 0.05 μg/mL, respectively. After mixing, it was mixed with Raji cells and incubateed at room temperature for 1 h. Raji cells were collected by centrifugation at 1400 rpm for 3 mins. […] The cells were rinsed twice with PBS+1% FBS and analyzed on an iQuePlus flow cytometer.
(§3) The mean fluorescence intensity (MFI) of the control well with only fluorescent secondary antibody was used as the mean fluorescence intensity of the background value, and the multiple of the mean fluorescence intensity of the sample and the mean fluorescence intensity of the background value was used to evaluate the binding strength of the VHH single-domain antibody to Raji cells.

[3] = target: T2, human CD47 on the cell membrane surface …; experiment: FACS on Raji cells, VHH 5 µg/mL
Protocol: as §1, §2, §3

[4] = target: T2, human CD47 on the cell membrane surface …; experiment: FACS on Raji cells, VHH 0.05 µg/mL
Protocol: as §1, §2, §3

[5] = target: T3, CD47 on human erythrocytes (human, UniProt Q08722 19-323); experiment: flow cytometry, human erythrocytes, second individual
T3 construct: whole, on cells; Kept apart from m1 because the same antibodies behave differently on these cells

[6] = target: T4, biotinylated-CD47 (ACRO Biosystems Cat. No. CD7-H82E9) (UniProt Q08722 19-139, biotinylated (site not stated)); experiment: competition ELISA; blocked: biotinylated-CD47 binding to coated SIRPα-His
T4 construct: also called CD47 recombinant protein
Protocol: After rinsing 4 times with PBST, 200 μl of PBS+1% BSA was added to each well, blocking for 1 h at room temperature, and rinsing 4 times with PBST. […] The 96-well plate was rinsed 4 times with PBST, 100 μl of Steptavidin-HRP (Invitrogen #434323) diluted 1:2500 was added to each well, and incubated at room temperature for 1 h. After rinsing the 96-well plate four times with PBST, 100 μl of TMB substrate (Cell Signaling, Cat. No. 7004) was added to each well, and after color development at room temperature for 10 mins, 50 μl of stop solution was added to stop the reaction.

[7] = target: T3, CD47 on human erythrocytes; experiment: flow cytometry, human erythrocytes
[8] = target: T5, CD47 on cynomolgus macaque erythrocytes (cynomolgus macaque, UniProt A0A5F8AK49 19-323 (rhesus entry)); experiment: flow cytometry on cynomolgus macaque erythrocytes of 4 animals
T5 construct: whole, on cells

[9] = target: T6, CD47 on cynomolgus macaque platelets (cynomolgus macaque, UniProt A0A5F8AK49 19-323 (rhesus entry)); experiment: flow cytometry, cynomolgus macaque platelets, animal 567#
T6 construct: whole, on cells

[10] = target: T6, CD47 on cynomolgus macaque platelets; experiment: flow cytometry, cynomolgus macaque platelets, animal 186#
CD47 on human platelets [11] = target: T7, CD47 on human platelets (human, UniProt Q08722 19-323); experiment: flow cytometry, human platelets
T7 construct: whole, on cells
Protocol: (§4) After the platelets were counted with a hemocytometer, the density of the platelets was adjusted to 1.5×10⁷/mL with PBS+1% FBS, and 100 μL of above sample was added to each well of a 96-well U-shaped plate. […] After incubating at 4° C. for 1 h, the samples were centrifuged at 1000 rpm for 3 mins and rinsed once with PBS+1% FBS. 100 μl of 1:1000 diluted goat anti-human IgG (H+L)-AlexaFluor488 (purchased from eBioscience, Cat. No. A11013) was added to each well, and incubated at 4° C. for 45 mins. The samples were centrifuged at 1000 rpm for 3 mins, rinsed twice with PBS+1% FBS, resuspended in 200 μl of PBS+1% FBS, and transferred to a flow tube for on-board detection.

[12] = target: T6, CD47 on cynomolgus macaque platelets; experiment: flow cytometry, cynomolgus macaque platelets, animal 194#
[13] = target: T3, CD47 on human erythrocytes; experiment: flow cytometry, human erythrocytes, first individual
[14] = target: T1, Human CD47 recombinant protein (Human …); experiment: SPR BIAcore 8K, antibody captured by anti-human IgG Fc on CM5, huCD47 (His tag) in flow, 25 C, 1:1 model
Protocol: The binding time of the huCD47 to the antibody was 180 s, the dissociation time was 900 s, and the reaction temperature was 25° C. The binding constant ka, the dissociation constant kd and the affinity KD were calculated by FitGlobal using BIAcore 8K Evaluation software (GE Healthcare) according to the 1:1 binding model.

CD47 on human platelets [15] = target: T7, CD47 on human platelets; experiment: flow cytometry, human platelets; remark: listed apart in the source
Protocol: as §4

Row | Binder | IC50 [1] | Mean fluorescence intensity (multiple) [2] | Mean fluorescence intensity (multiple) [3] | Mean fluorescence intensity (multiple) [4] | EC50 (read off the curve) [5] | IC50 (read off the curve) [6] | EC50 (read off the curve) [7] | EC50 [8] | EC50 (read off the curve) [9] | EC50 (read off the curve) [10] | EC50 (read off the curve) (CD47 on human platelets [11]) | EC50 (read off the curve) [12] | EC50 (read off the curve) [13] | Kd [14] | koff [14] | kon [14] | EC50 (read off the curve) (CD47 on human platelets [15])
1 | B1 | 616 nM | 142 fold | 204 fold | 43.5 fold |  |  |  |  |  |  |  |  |  |  |  |  | 
2 | B2 |  |  |  |  | ~0.02 µg/mL | ~0.3 µg/mL | ~2 nM | 0.01 to 0.03 µg/mL | ~0.5 µg/mL | ~0.3 µg/mL | ~0.8 µg/mL | ~0.3 µg/mL | ~0.03 µg/mL | 7.68 nM | 0.055 s⁻¹ | 7.16e+06 M⁻¹ s⁻¹ | ~0.02 µg/mL
3 | B3 | 15 nM | 61.4 fold | 152 fold | 27.2 fold |  |  |  |  |  |  |  |  |  |  |  |  | 
